According to the DeepSol protein solubility set:

Test: soluble on expression in E. coli; label from the status in PepcDB or PDB records

Sequence: MQQLINSLFMEAFANPWLAEQEDQARLDLAQLVAEGDRLAFSTDSYVIDPLFFPGGNIGKLAICGTANDVAVSGAIPRYLSCGFILEEGLPMETLKAVVTSMAETARAAGIAIVTGDTKVVQRGAVDKLFINTAGMGAIPANIHWGAQTLTAGDVLLVSGTLGDHGATILNLREQLGLDGELVSDCAVLTPLIQTLRDIPGVKALRDATRGGVNAVVHEFAAACGCGIELSEAALPVKPAVRGVCELLGLDALNFANEGKLVIAVERNAAEQVLAALHSHPLGKDAALIGEVVERKGVRLAGLYGVKRTLDLPHAEPLPRIC
- soluble on expression in E. coli: not soluble

Sequence: MSPSLLGSSFLRSASGNFTKFASIRNAHFLSSVPMKKRGVDGNLPKDYFENKTVVVYFSAGWCGSCKFLTPKIKKFYNAVKESDAGKNLEIVWVSKDKEAAHQEEYYEKNLPDWPYIPFGDENIQKLSEKYKAVVIPVLKLVNSNGDVVHDRVRADVEAGIKADPVKTMEEWKKLLNQ
- soluble on expression in E. coli: not soluble

Sequence: MGSDKIHHHHHHMSHSTDLSALARWMAADFSNQAQAFENPPFYAHIRVAIRPLDQAKFGDRLLFLEQAYDFMLQRPYRLRVLKLKVVEDHIEIENFKVKDEEKFYGAARDLGKLAQLTPADLEPMHGCDMIVEWTGTSFKGEVQPGRQCRVMRDGKETYLENSFEVSETGLISLDRGYDPETNERVWGSVAGAFHFVRWQSFADEVSF
- soluble on expression in E. coli: not soluble

Sequence: MAEEFVTLKDVGMDFTLGDWEQLGLEQGDTFWDTALDNCQDLFLLDPPRPNLTSHPDGSEDLEPLAGGSPEATSPDVTETKNSPLMEDFFEEGFSQEIIEMLSKDGFWNSNFGEACIEDTWLDSLLGDPESLLRSDIATNGESPTECKSHELKRGLSPVSTVSTGEDSMVHNVSEKTLTPAKSKEYRGEFFSYSDHSQQDSVQEGEKPYQCSECGKSFSGSYRLTQHWITHTREKPTVHQECEQGFDRNASLSVYPKTHTGYKFYVCNEYGTTFSQSTYLWHQKTHTGEKPCKSQDSDHPPSHDTQPGEHQKTHTDSKSYNCNECGKAFTRIFHLTRHQKIHTRKRYECSKCQATFNLRKHLIQHQKTHAAKTTSECQECGKIFRHSSLLIEHQALHAGEEPYKCNERGKSFRHNSTLKIHQRVHSGEKPYKCSECGKAFHRHTHLNEHRRIHTGYRPHKCQECVRSFSRPSHLMRHQAIHTAEKPYSCAECKETFSDNNRLVQHQKMHTVKTPYECQECGERFICGSTLKCHESVHAREKQGFFVSGKILDQNPEQKEKCFKCNKCEKTFSCSKYLTQHERIHTRGVKPFECDQCGKAFGQSTRLIHHQRIHSRVRLYKWGEQGKAISSASLIKLQSFHTKEHPFKCNECGKTFSHSAHLSKHQLIHAGENPFKCSKCDRVFTQRNYLVQHERTHARKKPLVCNECGKTFRQSSCLSKHQRIHSGEKPYVCDYCGKAFGLSAELVRHQRIHTGEKPYVCQECGKAFTQSSCLSIHRRVHTGEKPYRCGECGKAFAQKANLTQHQRIHTGEKPYSCNVCGKAFVLSAHLNQHLRVHTQETLYQCQRCQKAFRCHSSLSRHQRVHNKQQYCL
- soluble on expression in E. coli: soluble

Sequence: MTVTDLSKKPLLLLDHVTMQFGGLVAVDDFTNEIREGELVGLIGPNGAGKTTVFNVITGIYTPTKGRIVFNDIDITGLRPYQITHLGIARTFQNIRLFSDMTVLENVLVAQHHVLSNPDADRILVKHGKPRKGHGRFWFWRAVTKIGYLKKEKEMVERAKDLIKRVGLEKVMYEKASSLPYGEQRKLEIARALATEPKLILLDEPAAGMNPKETEDLMEFIKQIRKDFNLTVLLIEHDMKVVMGICERIIVMDYGRIIAEGTPKEIQNDPRVIEAYLGREWESV
- soluble on expression in E. coli: soluble

Sequence: MGSDKIHHHHHHMTPTYDTLIIGAGIAGASLGYRLAGQQRVLLVERESQPGYHSTGRSAAMFMEAYGTPQIQALTRASRAFYEAPPQGFCEHPLLEPRGCLYVASLEQRELLEQTFAQNLANGTEVTLLDRDAALALIPSLRGETLAGAVLEPGAMDLDVHALHQGFLRGYRTAGGELRCNAELIQACYLDDVWQVELADGSRLQARCLVNAAGAWADRVAEQCGVARIGLQPCRRSAFTFPGPAEQDFTRWPAVIGVDESFYFKPDAGQLLGSPANADPVEPQDAAPEEFDVALGIYNIEAMTTLAIRRPSHTWAGLRSFVADGDLVIGFDAHAPAFFWLAAQGGYGIQSAAGASRLAADLLLGQPLCASLVSQGVAPERLSPARFQQP
- soluble on expression in E. coli: not soluble

Sequence: MSLKNNEKLIKWLFDTNAIRVCPKDKPFWYTSGTIGPYYINTHFLYGSEEKANKLLEFIDKEKENILKCPDRILEETMKNYQSDPIYRGLIDEMCDFIKNNIDVNEVDYISGGERRDWFFSPIIAKLLNKPHITIYKDLTTVVSSDGKTEELKELNGESVLHIADLITEASSYERAWIPAIKNNGGRIKWSVVVVDRKQGGAELLKSYDIKSFSMVDIDEGHHHHHH
- soluble on expression in E. coli: soluble

Sequence: MAHHHHHHMVVVKGTEYYDGRTKNYVDYPITDVLQMVGRAGRPQFDTEGVAQVLCHEPKKGFYRKFLYDPFPVESTLHKQLHVHINAEIVAGTITTRQDAVDYLTWTYLFRRLVKNPSYYGVEDRSPKAVTIFISTLVANVLDELEACGCIASPGDDEEDDVSRKVTGMSAAGGTDDEKDPDALTCTVLGRLCSYYYLSHKTVRYFDAHIGADSSHVDVLKALCEAEEFNELPVRHNEDKLNLVLSQLLPFPINPNNAESPHVKAFLLFQAHFERASLPISDYYTDLKSALDNAVRVVQAMVDITSNNGHLYAALRCMSLLQCMVQGIWWHSSTLLQIPHVTAGMLPVIASRCGNLEHAAQVANSSITALQTLKAVLREDCGLSETQLREAMAAIQGFPLIDVRLCLSRTPDRTSNSGDAEHSDDGSKTAADVTYTLTVHLTRLSVHNKHVVAPHFTKPKDEQYWLVVGNEKTGELIALKRVNRLVNCVELTLSFEWDDEWAEFAEGGAVALSLYVVCDSYVGLDQQYNFSVPVPVDM
- soluble on expression in E. coli: soluble

Sequence: MINLRWPLNWLKLQSSHGQRLNSQLNLIHSRKWIDFDEQIVGTWKLASSENCPNFIEWFGIEKKKSNYGYYNDLTQAKLNENLVFKMNYNNIVGIPKLFPHMSEKTVRENRHIKTTDDRSLKLTIDRYIDMGKLNVTMELKVNEGKHVCTCKLVYDRVYY
- soluble on expression in E. coli: not soluble

Sequence: MKTGVTGPYTFGVGLITYLCSKEIYVMEHEYYSGLSLGIMAIIAVKKLGPVIAKWADGEIDKIESEWKEGREAELKVLSDAIEAEKKEQWRADGALLLMEAKKENIALQLEAAFRERAMNVYSEVNRPLDYQVECRHVERRLSQKHMVNWITTNVLASISPQQEKETLNKCIADLSALALRVKSALEHHHHHH
- soluble on expression in E. coli: not soluble

Sequence: MKDRYLIIDGYNMIGQSQELSRIAQDNLEEAREQLLIAIANYNAVIADEVVCVFDAYEQSGAPTEYMYHGVKTIFTKEKETADSYIERYVYDLYDKHTRHITVVTSDMSEQHAIFGAGAYRVSSREMWRDLRENEISVSKKLDGFNEQKPRTRIELSNEILEEFEKLRRGDNHLEHHHHHH
- soluble on expression in E. coli: not soluble

Sequence: MRQIQSIRLIDVLELAFGVGYKEETTSQFSSDQPSQVVLYRGEANTVRFAYTNQMSLMKDIRIALDGSDKSLTAQIVPGMGHVYEGFQTSARGIFTMSGVPESTVPVANPNVQTKYIRYFKVIDDMHNTMYKGTVFLVQPQAWKYTMKSVDQLPVDDLNHIGVAGIERMTTLIKNAGALLTTGGSGAFPDNIKVSINPKGRQATITYGDGSTDIIPPAVLWKKGSVKEPTEADQSVGTPTPGIPGKFKRDQSLNEHEAMVNVEPLSHVVKDNIKVIDEKSTGRFEPFRPNEDEKEKPASDVKVRPAEVGSWLEPATALPSVEMSAEDRLKS
- soluble on expression in E. coli: not soluble

Sequence: MGSDKIHHHHHHMKRILVSLYEKEKYLDILRELHEKGWEIWASSGTAKFLKSNGIEANDVSTITGFENLLGGLVKTLHPEIFAGILGPEPRWDVVFVDLYPPPDIDIGGVALLRAAAKNWKKVKPAFDMETLKLAIEIDDEETRKYLAGMTFAFTSVYDSIRANQFVEGISLAFKREDLQLRYGENPHEKAFVYGKPAFEILHEGKTISFNNILDAENAWFMAKNLPRMGAVVVKHQSPCGAAIGEDKVEIVKKAIEADDESSFGGILAVNFEMDEEVAKSLKKYLEVIVAPSFTQEAIEVLSKKKVRLLKPGDYASWAGKMAFGSLVLSERKYPEGNFELVVGEPLSEKELEDLEFAYRVVEGAKSNAVLIAKDGVTVGIGSGQPSRKRAAWIATVMAGEKAKGAVAASDAFFPFPDSLEILAQAGVKAVVAPLGSIRDEEVIEKARELGITFYKAPSRVFRH
- soluble on expression in E. coli: soluble

Sequence: AVVATDAYVKRTNIFYHASSSRLLAVGHPYYSIKKVNKTVVPKVSGYQYRVFKVVLPDPNKFALPDSSLFDPTTQRLVWACTGLEVGRGQPLGVGVSGHPLLNKYDDVENSGGYGGNPGQDNRVNVGMDYKQTQLCMVGCAPPLGEHWGKGTQSSNTSVQNGDCPPLELITSVIQDGDMVDTGFGAMNFADLQTNKSDVPLDICGTVCKYPDYLQMAADPYGDRLFFYLRKEQMFARHFFNRAGTVGEPVPDDLLVKGGNNRSSVASSIYVHTPSGSLVSSEAQLFNKPYWLQKAQGHNNGICWGNHLSVTVVDTTRSTNMTLCASVSKSATYTNSDYKEYMRHVEEFDLQFIFQLCSITLSAEVMAYIHTMNPSVLEDWNGGSGGKQDPYKDMSFWEVNLKEKFSSELDQFPLGRKFLLQSGY
- soluble on expression in E. coli: soluble

Sequence: DYNASDMKVVSLRTKDNLHLKSWYKPASKHRPTILYLHGNAGHIGYRMPLVREFIDAGLGVFLLEYRGYGGNPGKPGEKGLYEDGETAIEFLIQHGVPSKRVILYGESIGTGVATHLATKYPVCAVILQSPFTSLTRLAQYHYPLNFLKPWDQYNSLARMKKINAPILVLHGKLDQIVPYQEGLNVFNEANEPKKMVSFDDKEHNDLWSADNFSREIIQFALNQCS
- soluble on expression in E. coli: not soluble

Sequence: MNLDLQKVLPAEAFETEQNEGDYIGKDGLLYCGVCRTKKQTRLPASDFTGGREIIVPCICKCKVEENKRKEEEEKKRQEMQRLERLKASSLMDAKLKAARLDGYQVDGDNQKIYNLAGNYVKRFDEMYEKRQGLLFWGTVGTGKSYTAACIANELLNQMIPVVMTSFVKILQNIQGNPDEEERIMAGLNAAKLLIIDDLGAERSTDYALEKVYNIIDSRYLSGKPLILTTNMTLKDMQESEDIRYRRIYDRIFEMCFPVRFAGRSWREKAASKRFDAMKNLMEE
- soluble on expression in E. coli: not soluble

Sequence: MSNYTWKQADIQTLISFYETLGEEINPKVQKVQQNSEANSFSEKAKKFGLLDLPIYSKCVDSSQLIAESASRVYHDAKEYMNNGSATEAELYRFVSSILKEVLEPIFNPKEIRNVLKGLITSLVDSRSRDEEIGSDIEKNVKYEVVRFLPESPPNFPGFNDNVSRSITNFIGYFALHTIRHHCYVNFGVDGELKFYQRNMYKKAFDDLRVNKAKPTVSVKPEASLKREPKAETPTLTRVKPEIRNDSDEDFCEIIEPAVKKSKTRQTSESNAKGGKELKDFPEKYMLEDLDKDDLPMNFKTKFRKLVEQNQMLRDEINDYKELIQLKIAEKKQRMG
- soluble on expression in E. coli: not soluble

Sequence: MGSDKIHHHHHHMVREPASTLLPPTSPATPAPHRLLIGRRGMVPTGANVIWKIQSGLVRSSTWGEEGDMISLGLWGPGDLIGRPLSCLDPYELECLTAVEVVAVSDPALESHESLVRSLRYTERLLSITRLRRAEAKLASLLGWIGERFGQPGATGWEIDLRRIPLTHQVIAELSGSTRVTTTRLLGEFRQAGRIHRRDRALIVRYPETLYPPARLSA
- soluble on expression in E. coli: not soluble

Sequence: MHFGKHNVDFMLPSLRKEWEDPEKIVSQIPIQPNFDIVDLGCGPGFFTLPLSETTDGKVYAIDASQEMIDALKQRIDGRSNIVTIKAPAEKIPLPDLSADLVFIANAYHDFDDRDEVLSEIYRILRAGRFLVDIDWKKEETTRGPPIDIRIDKKEAMLEIASHNFDIESEIEAGPHHYGLIFKKILEHHHHHH
- soluble on expression in E. coli: soluble
